Experiment [1] addresses hCA-IX expressed on cells (SKRC52, SKRC59, 67NR^hCA-IX) (human) (UniProt Q16790). Nature of the experiment: Plate-based cell binding assay, one site specific binding fit; cell line not given.
Experiment [2] shares this target. Nature of the experiment: plate-based cell binding assay, mean fluorescent intensity per cell area, SKRC52 (hCA-IX high) cells.

pKd: −log10 of the molar value.

This passage reports Bmax (mean fluorescent intensity per cell area), Kd and EC50 (read off the curve) results from patent US20240076406A1, “SINGLE DOMAIN ANTIBODIES TARGETING CA-IX AS WELL AS COMPOSITIONS COMPRISING SAME” (National Research Council of Canada, priority 2021, published 2024).

By pKd is commonly meant the negative decadic logarithm of the Kd, by convention in mol/L. High values mean a small Kd, low ones a large Kd. The EC50 (read off the curve) is the concentration needed to bring the measured effect to its halfway point. The low end stands for higher potency in that assay, the high end for lower potency in that assay. In experiment [1], cG250 full sized antibody (FSA) showed a Bmax (mean fluorescent intensity per cell area) of 575 and a pKd of 8.89. This substance returned an EC50 (read off the curve) in experiment [2] of 1 nM.
